{
  "source": "patent US20210403506A1",
  "about": "(XDCEXPLORER SHANGHAI, published 2021)",
  "binders": {"B1": {"name": "YW-193 (peptide)", "peptide": "Hexanoyl-[dY]F[NMeL]P[dS]QF[dA][Tic]S"}, "B2": {"name": "YW-224 (peptide)", "peptide": "[dY]F[NMeL][Pro(diF)][dS]Q[2Nal][dA][Tic][NMeS]"}, "B3": {"name": "YW-111 (peptide)", "peptide": "Hydrocinnamoyl-[dY]F[NMeL]P[dS]QF[dA][Tic]S-OH", "SMILES": "CC(C)C[C@@H](C(=O)N1CCC[C@H]1C(=O)N[C@H](CO)C(=O)N[C@@H](CCC(N)=O)C(=O)N[C@@H](Cc1ccccc1)C(=O)N[C@H](C)C(=O)N1Cc2ccccc2C[C@H]1C(=O)N[C@@H](CO)C(=O)O)N(C)C(=O)[C@H](Cc1ccccc1)NC(=O)[C@@H](Cc1ccc(O)cc1)NC(=O)CCc1ccccc1"}, "B4": {"name": "YW-204 (peptide)", "peptide": "[dY]F[NMeL]P[dT]QF[dA][Tic]S"}, "B5": {"name": "YW-186 (peptide)", "peptide": "Hydrocinnamoyl-[dY]F[NPrL]P[dS]QF[dA][Tic]S"}, "B6": {"name": "YW-105 (peptide)", "peptide": "[dY][NMeF][NMeL]P[dS]QF[dA][Tic]S-OH", "modifications": "N-terminus assumed", "SMILES": "CC(C)C[C@@H](C(=O)N1CCC[C@H]1C(=O)N[C@H](CO)C(=O)N[C@@H](CCC(N)=O)C(=O)N[C@@H](Cc1ccccc1)C(=O)N[C@H](C)C(=O)N1Cc2ccccc2C[C@H]1C(=O)N[C@@H](CO)C(=O)O)N(C)C(=O)[C@H](Cc1ccccc1)N(C)C(=O)[C@H](N)Cc1ccc(O)cc1"}, "B7": {"name": "YW-223 (peptide)", "peptide": "GG[dY]F[NMeL]P[dS]Q[2Nal][dA][Tic]S", "modifications": "not fully specified (residue 6, N-terminus)"}, "B8": {"name": "YW-216 (peptide)", "peptide": "[dNMeY]F[NMeL][Pro(4Ph)][dS]Q[2Nal][dA][Tic]S"}, "B9": {"name": "YW-217 (peptide)", "peptide": "{Palmitoyl-PEG8}-[βAla][βAla][dNMeY]F[NMeL][Pro(trans-4-Ph)][dS]Q[2Nal][dA][Tic]S"}, "B10": {"name": "YW-200 (peptide)", "peptide": "[dY][2Nal][NMeL]P[dS]QF[dA][Tic]S"}, "B11": {"name": "YW-220 (peptide)", "peptide": "[dNMeY]F[NMeL]P[dS]Q[2Nal][dA][Tic][NMeS]", "modifications": "not fully specified (residue 4); printed as (NMe-D-Tyr)-Phe-(NMe-Leu)-Pro(tran-4F)-(D-Ser)-Gln-(Nal-2)-(D-Ala)-Tic-(NMe-Ser)"}, "B12": {"name": "YW-206 (peptide)", "peptide": "[dY]F[NMeL]P[dS]QF[dA][Phe(4-Cl)]S"}, "B13": {"name": "YW-225 (peptide)", "peptide": "[dNMeY]F[NMeL][Pro(diF)″][dS]Q[2Nal][dA][Tic][NMeS]-OH"}, "B14": {"name": "YW-198 (peptide)", "peptide": "[dY]F[NMeL][Hyp][dS]QF[dA][Tic]S"}, "B15": {"name": "YW-190 (peptide)", "peptide": "[dY]F[NMeL]P[dS]QF[dA]XS-NH2", "modifications": "not fully specified (residue 9); printed as (D-Tyr)-Phe-(NMe-Leu)-Pro-(D-Ser)-Gln-Phe-(D-Ala)-Tic-Ser-NH2"}, "B16": {"name": "YW-195 (peptide)", "peptide": "{4‑(trifluoromethyl)benzoyl}-[dY]F[NMeL]P[dS]QF[dA][Tic]S-OH"}, "B17": {"name": "YW-121 (peptide)", "peptide": "[dY]F[NMeL][Thz][dS]QF[dA][Tic]S-OH", "modifications": "N-terminus assumed", "SMILES": "CC(C)C[C@@H](C(=O)N1CSC[C@H]1C(=O)N[C@H](CO)C(=O)N[C@@H](CCC(N)=O)C(=O)N[C@@H](Cc1ccccc1)C(=O)N[C@H](C)C(=O)N1Cc2ccccc2C[C@H]1C(=O)N[C@@H](CO)C(=O)O)N(C)C(=O)[C@H](Cc1ccccc1)NC(=O)[C@H](N)Cc1ccc(O)cc1"}, "B18": {"name": "YW-205 (peptide)", "peptide": "[dY]F[NMeL]P[dS]QF[dA][Phe(4-Me)]S"}, "B19": {"name": "YW-202 (peptide)", "peptide": "[dY][Phe(4-Me)][NMeL]P[dS]QF[dA][Tic]S"}, "B20": {"name": "YW-221 (peptide)", "peptide": "[dTyr(3-F)]F[NMeL]P[dS]Q[2Nal][dA][Tic][NMeS]", "modifications": "not fully specified (residue 4); printed as (D-Tyr(3F))-Phe-(NMe-Leu)-Pro(tran-4F)-(D-Ser)-Gln-(Nal-2)-(D-Ala)-Tic-(NMe-Ser)"}, "B21": {"name": "YW-201 (peptide)", "peptide": "[dY][Bpa][NMeL]P[dS]QF[dA][Tic]S"}, "B22": {"name": "YW-199 (peptide)", "peptide": "[dY][1Nal][NMeL]P[dS]QF[dA][Tic]S"}, "B23": {"name": "YW-203 (peptide)", "peptide": "[dY][Phe(4-Cl)][NMeL]P[dS]QF[dA][Tic]S"}, "B24": {"name": "YW-194 (peptide)", "peptide": "{2‑cyclohexylacetyl}-[dY]F[NMeL]P[dS]QF[dA][Tic]S"}, "B25": {"name": "YW-215 (peptide)", "peptide": "[dY]F[NMeL][Pro(trans-4-Ph)][dS]QF[dA][Tic]S"}, "B26": {"name": "YW-192 (peptide)", "peptide": "DiMe-[dY]F[NMeL]P[dS]QF[dA][Tic]S"}, "B27": {"name": "YW-222 (peptide)", "peptide": "[dTyr(3-F)]F[NMeL]P[dS]Q[2Nal][dA][Tic]S", "modifications": "not fully specified (residue 4); printed as [D-Tyr(3F)]-Phe-(NMe-Leu)-Pro(tran-4F)-(D-Ser)-Gln-(Nal-2)-(D-Ala)-Tic-Ser"}, "B28": {"name": "YW-207 (peptide)", "peptide": "{3‑phenylpropyl}-[dY]F[NMeL]P[dS]QF[dA][Tic]S-OH"}},
  "molecular_target": "T1, human Chemokine like receptor 1 (human, UniProt Q99788 1-373)",
  "T1 sequence (looked up)": "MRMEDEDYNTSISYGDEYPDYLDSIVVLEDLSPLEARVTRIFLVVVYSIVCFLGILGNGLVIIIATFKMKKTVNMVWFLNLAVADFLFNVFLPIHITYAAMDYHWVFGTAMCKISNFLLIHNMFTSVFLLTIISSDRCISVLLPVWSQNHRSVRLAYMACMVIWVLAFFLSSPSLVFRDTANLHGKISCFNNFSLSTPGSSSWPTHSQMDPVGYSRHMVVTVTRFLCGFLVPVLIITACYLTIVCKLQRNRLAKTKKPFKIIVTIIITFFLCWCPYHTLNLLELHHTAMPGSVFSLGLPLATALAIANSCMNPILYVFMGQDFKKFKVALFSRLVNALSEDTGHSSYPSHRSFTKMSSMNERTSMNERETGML",
  "assay": "cell-based or functional assay",
  "note": "Square brackets hold non-standard residues; d marks the D form. Primed or numbered codes have the meaning given here. Ends that are not written are not given here. * marks the point of attachment. Pro(trans-4-Ph) = O=C(O)[C@@H]1C[C@@H](c2ccccc2)CN1; DiMe = N,N-dimethyl (N-terminal dimethylation); Bpa = N[C@@H](Cc1ccc(C(=O)c2ccccc2)cc1)C(=O)O; dTyr(3-F) = N[C@H](Cc1ccc(O)c(F)c1)C(=O)O; PEG8 = NCCOCCOCCOCCOCCOCCOCCOCCOCCC(=O)O; Phe(4-Cl) = N[C@@H](Cc1ccc(Cl)cc1)C(=O)O; Pro(diF)″ = difluoroproline (DiFluorPro); Phe(4-Me) = Cc1ccc(C[C@H](N)C(=O)O)cc1; 1Nal = N[C@@H](Cc1cccc2ccccc12)C(=O)O; 2Nal = N[C@@H](Cc1ccc2ccccc2c1)C(=O)O; dNMeY = CN[C@H](Cc1ccc(O)cc1)C(=O)O; Hydrocinnamoyl = O=C(CCc1ccccc1)*; Palmitoyl = CCCCCCCCCCCCCCCC(=O)*; Hyp = O=C(O)[C@@H]1C[C@@H](O)CN1; NMeF = CN[C@@H](Cc1ccccc1)C(=O)O; 3‑phenylpropyl = c1ccc(CCC*)cc1; Tic = O=C(O)[C@@H]1Cc2ccccc2CN1; NMeL = CN[C@@H](CC(C)C)C(=O)O; NMeS = CN[C@@H](CO)C(=O)O; Thz = O=C(O)[C@@H]1CSCN1; Hexanoyl = CCCCCC(=O)*; βAla = NCCC(=O)O",
  "data": [
    {"binder": "B1", "values": [
      {"measurement": "EC50 (µM), activation of Tango CMKLR1-bla U2OS cells", "value": 0.0014, "unit": "µM"}
    ]},
    {"binder": "B2", "values": [
      {"measurement": "EC50 (µM), activation of Tango CMKLR1-bla U2OS cells", "value": 0.0013, "unit": "µM"}
    ]},
    {"binder": "B3", "values": [
      {"measurement": "EC50 (µM), activation of Tango CMKLR1-bla U2OS cells", "value": 0.002, "unit": "µM"}
    ]},
    {"binder": "B4", "values": [
      {"measurement": "EC50 (µM), activation of Tango CMKLR1-bla U2OS cells", "value": 0.062, "unit": "µM"}
    ]},
    {"binder": "B5", "values": [
      {"measurement": "EC50 (µM), activation of Tango CMKLR1-bla U2OS cells", "value": 0.011, "unit": "µM"}
    ]},
    {"binder": "B6", "values": [
      {"measurement": "EC50 (µM), activation of Tango CMKLR1-bla U2OS cells", "value": 0.0106, "unit": "µM"}
    ]},
    {"binder": "B7", "values": [
      {"measurement": "EC50 (µM), activation of Tango CMKLR1-bla U2OS cells", "value": 0.00033, "unit": "µM"}
    ]},
    {"binder": "B8", "values": [
      {"measurement": "EC50 (µM), activation of Tango CMKLR1-bla U2OS cells", "value": 0.0013, "unit": "µM"}
    ]},
    {"binder": "B9", "values": [
      {"measurement": "EC50 (µM), activation of Tango CMKLR1-bla U2OS cells", "value": 0.0033, "unit": "µM"}
    ]},
    {"binder": "B10", "values": [
      {"measurement": "EC50 (µM), activation of Tango CMKLR1-bla U2OS cells", "value": 0.019, "unit": "µM"}
    ]},
    {"binder": "B11", "values": [
      {"measurement": "EC50 (µM), activation of Tango CMKLR1-bla U2OS cells", "value": 0.00067, "unit": "µM"}
    ]},
    {"binder": "B12", "values": [
      {"measurement": "EC50 (µM), activation of Tango CMKLR1-bla U2OS cells", "value": 0.009, "unit": "µM"}
    ]},
    {"binder": "B13", "values": [
      {"measurement": "EC50 (µM), activation of Tango CMKLR1-bla U2OS cells", "value": 0.00064, "unit": "µM"}
    ]},
    {"binder": "B14", "values": [
      {"measurement": "EC50 (µM), activation of Tango CMKLR1-bla U2OS cells", "value": 0.0053, "unit": "µM"}
    ]},
    {"binder": "B15", "values": [
      {"measurement": "EC50 (µM), activation of Tango CMKLR1-bla U2OS cells", "value": 0.0027, "unit": "µM"}
    ]},
    {"binder": "B16", "values": [
      {"measurement": "EC50 (µM), activation of Tango CMKLR1-bla U2OS cells", "value": 0.0008, "unit": "µM"}
    ]},
    {"binder": "B17", "values": [
      {"measurement": "EC50 (µM), activation of Tango CMKLR1-bla U2OS cells", "value": 0.0007, "unit": "µM"}
    ]},
    {"binder": "B18", "values": [
      {"measurement": "EC50 (µM), activation of Tango CMKLR1-bla U2OS cells", "value": 0.0062, "unit": "µM"}
    ]},
    {"binder": "B19", "values": [
      {"measurement": "EC50 (µM), activation of Tango CMKLR1-bla U2OS cells", "value": 0.0064, "unit": "µM"}
    ]},
    {"binder": "B20", "values": [
      {"measurement": "EC50 (µM), activation of Tango CMKLR1-bla U2OS cells", "value": 0.00068, "unit": "µM"}
    ]},
    {"binder": "B21", "values": [
      {"measurement": "EC50 (µM), activation of Tango CMKLR1-bla U2OS cells", "value": 0.076, "unit": "µM"}
    ]},
    {"binder": "B22", "values": [
      {"measurement": "EC50 (µM), activation of Tango CMKLR1-bla U2OS cells", "value": 0.0029, "unit": "µM"}
    ]},
    {"binder": "B23", "values": [
      {"measurement": "EC50 (µM), activation of Tango CMKLR1-bla U2OS cells", "value": 0.0082, "unit": "µM"}
    ]},
    {"binder": "B24", "values": [
      {"measurement": "EC50 (µM), activation of Tango CMKLR1-bla U2OS cells", "value": 0.0012, "unit": "µM"}
    ]},
    {"binder": "B25", "values": [
      {"measurement": "EC50 (µM), activation of Tango CMKLR1-bla U2OS cells", "value": 0.0048, "unit": "µM"}
    ]},
    {"binder": "B26", "values": [
      {"measurement": "EC50 (µM), activation of Tango CMKLR1-bla U2OS cells", "value": 0.0026, "unit": "µM"}
    ]},
    {"binder": "B27", "values": [
      {"measurement": "EC50 (µM), activation of Tango CMKLR1-bla U2OS cells", "value": 0.00034, "unit": "µM"}
    ]},
    {"binder": "B28", "values": [
      {"measurement": "EC50 (µM), activation of Tango CMKLR1-bla U2OS cells", "value": 0.00092, "unit": "µM"}
    ]}
  ]
}
